The record followed here is patent publication US20050164906A1 (APPLIED RESEARCH SYSTEMS ARS HOLDING N V, published 2005).

Experiment [1] addresses T1, GST alone (Glutathione S-transferase, control) (UniProt P08515 1-218 = GST).
T1 construct: Control loaded on glutathione Sepharose beads; also called GST-protein alone
The experiment is described as follows: GST pull-down of in vitro 35S-labeled protein.

The target in experiment [2] is T2, GST-Raf-RBD, GST fusion protein comprising the Ras Binding Domain of human Raf (Raf-RBD, residues 1-149) (human, UniProt P04049 1-149).
T2 construct: range 1-149; Immobilised on glutathione Sepharose beads; not shown: Glutathione S-transferase (GST) encoded by the pGEX-4T2 plasmid (Pharmacia)
The experiment is described as follows: GST pull-down of in vitro 35S-labeled protein.

Experiment [3] addresses T3, N87A-GILZ, full mouse GILZ in which an Asparagine is mutated in Alanine, in vitro 35S-labeled (mouse, UniProt Q9Z2S7 1-137, [35S]-Methionine label).
T3 construct: range 1-137
T3 sequence (looked up): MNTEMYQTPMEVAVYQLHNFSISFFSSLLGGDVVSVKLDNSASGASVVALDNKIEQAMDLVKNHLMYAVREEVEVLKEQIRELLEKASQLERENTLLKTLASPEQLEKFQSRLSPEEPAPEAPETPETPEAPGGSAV
In words: GST pull-down of in vitro 35S-labeled protein.

The target in experiment [4] is T4, ERK-2 in lysates of murine thymocytes (mouse, UniProt P63085 2-358).
T4 construct: Detected together with ERK-1 by α-ERK-1/-2 antibodies; also called ERK-1/-2
The experiment is described as follows: GST pull-down from murine thymocyte lysates, Western blot with α-ERK-1/-2. The method, then:
(§1) Extracts were prepared from the indicated cell, treated or untreated with DEX (10 microMolar), as previously described (Ayroldi E et al., 2001). GST or GST fusion proteins, loaded on Sepharose beads, were mixed with cell extracts in binding buffer (NaCl 250 milliMolar, HEPES (ph7.5) (pH 7.5) 50 milliMolar, EDTA 0.5 milliMolar, Nonidet P-40 0.1% (v/v), phenylmethylsulfonyl fluoride (PMSF) 0.2 milliMolar, dithiothreitol (DTT) 1 milliMolar, bovine serum albumin (BSA) 100 μg/ml), heated for 5 minutes at 42° C., incubated for 2 hours at 4° C., washed extensively with binding buffer, resuspended in loading buffer and analysed by SDS-PAGE and Western blot as described above. In the case of murine thymocytes extracts, the incubation with the beads was performed overnight and at 4° C. The α-MEK and α-ERK antibodies (Upstate Biotechnology) were used following manufacturer's instructions.
On the technique in general: A western blot detects proteins with antibodies after separation by electrophoresis.

Experiment [5] concerns the target T5, ERK-1 in lysates of murine thymocytes (mouse, UniProt Q63844 2-380).
T5 construct: Detected together with ERK-2 by α-ERK-1/-2 antibodies; also called ERK-1/-2
The experiment is described as above. The method, then:
as §1

Experiment [6] has as its target T1, GST alone (Glutathione S-transferase, …). In words: GST pull-down from thymocyte whole cell lysates, Western blot with α-GILZ. The method, then:
as §1

Numbering of substitutions follows the chain as printed.

T1 sequence (P08515 whole entry): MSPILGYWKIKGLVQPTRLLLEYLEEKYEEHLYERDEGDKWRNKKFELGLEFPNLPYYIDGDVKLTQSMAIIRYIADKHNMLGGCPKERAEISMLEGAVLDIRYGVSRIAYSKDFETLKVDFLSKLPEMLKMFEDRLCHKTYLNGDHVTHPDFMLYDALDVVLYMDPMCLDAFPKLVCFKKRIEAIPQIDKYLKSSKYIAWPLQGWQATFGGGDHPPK
T5 sequence (Q63844 2-380 limits assumed): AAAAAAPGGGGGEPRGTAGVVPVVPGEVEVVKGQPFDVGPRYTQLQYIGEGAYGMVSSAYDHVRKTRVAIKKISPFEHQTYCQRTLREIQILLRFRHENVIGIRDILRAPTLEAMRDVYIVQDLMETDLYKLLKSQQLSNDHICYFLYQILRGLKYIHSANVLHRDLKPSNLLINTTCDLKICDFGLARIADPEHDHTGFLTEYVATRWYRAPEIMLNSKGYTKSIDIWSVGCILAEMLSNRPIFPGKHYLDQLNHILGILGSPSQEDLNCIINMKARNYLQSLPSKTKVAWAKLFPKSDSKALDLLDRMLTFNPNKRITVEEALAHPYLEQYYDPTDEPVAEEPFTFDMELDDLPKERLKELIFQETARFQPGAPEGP

B1: ΔC-GILZ, GILZ lacking the C-terminal region (first 97 amino acids of mouse GILZ), in vitro 35S-labeled (other)
chain: MNTEMYQTPMEVAVYQLHNFSTSFFSSLLGGDVVSVKLDNSASGASVVALDNKIEQAMDLVKNHLMYAVREEVEVLKEQIRELLEKNSQLERENTLL
modifications: [35S]-methionine isotopic label from in vitro translation; letters unchanged
notes: also called 35S-AC-GILZ
Regarding B1, in experiment [1], the binding result is listed as “no binding”.

B2: ΔN-GILZ, GILZ lacking the N-terminal region (first 8 amino acids of mGILZ fused with the residues 73-137), in vitro 35S-labeled (other)
chain: MNTEMYQTVEVLKEQIRELLEKNSQLERENTLLKTLASPEQLEKFQSRLSPEEPAPEAPETPETPEAPGGSAV
modifications: [35S]-Methionine label ; [35S]-methionine isotopic label from in vitro translation; letters unchanged
notes: also called DN-GILZ; 35S-ΔN-GILZ
Turning to B2, the binding result in experiment [2] is reported as “no binding”.

B3: Glutathione S-transferase GILZ fusion protein (GST-GILZ), containing entire mouse GILZ (other, UniProt Q9Z2S7 1-137, looked up)
chain: T3 sequence (looked up) with A87N
notes: range 1-137; Immobilised on glutathione Sepharose beads; Prepared as in Ayroldi E et al., 2001; not shown: Glutathione S-transferase (GST) encoded by the pGEX-4T2 plasmid (Pharmacia)
For B3, the binding result in experiment [3], in experiment [4] and in experiment [5] was “no binding” in each case.

B4: in vitro 35S-labeled full GILZ (full-length mouse GILZ, in vitro translated) (other, UniProt Q9Z2S7 1-137, looked up)
chain: T3 sequence (looked up) with A87N
modifications: [35S]-Methionine label
notes: range 1-137; also called 35S-GILZ; GILZ full-length protein
On to B4, for which, in experiment [1], the binding result was “no binding”.

B5: GILZ, endogenous, in whole cell lysates of murine thymocytes (DEX-treated or untreated) (other, mouse, UniProt Q9Z2S7 1-137, looked up)
chain: T3 sequence (looked up) with A87N
notes: also called mGILZ
In the case of B5, the binding result in experiment [6] is on record as “no binding”.
